Measurements from the supplement of paper PMC10126150.
± gives the standard deviation of the averaged measurements.

Test system: ATP
Experiment: switch fluorescence ratio, 500 uM ATP over buffer (Cy3 cluster intensity, sum of 5 cycles each) (fold (ratio)); higher = stronger signal-on switching upon ATP binding; sequences stand for … in TCGTCGGCAGCGTCAGATGTGTATAAGAGACAGTTTTTTTTTTTTTTTTTTTTTTTTT…TC
Details: aptamer strand: ATP DNA aptamer (quencher-CACCTGGGGGAGTATTGCGGAGGAAGG + anchor), 100 nM annealed; ATP concentration: 500 uM
How it was run: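 Five buffer/ATP imaging cycles were run on Cy3-labelled switching-strand clusters on a modified Illumina MiSeq flow-cell, with NaOH stripping and re-annealing between cycles. In each cycle, clusters annealed to 100 nM quencher-labelled ATP aptamer were imaged in selection buffer, then after 15 min with 500 uM ATP at 22 °C. Per cluster, the fluorescence ratio is summed target-cycle over summed buffer-cycle Cy3 intensity, averaged per switch-domain sequence. Only clusters within 100-1000 RFU were kept.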
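Further: ATP exposure 15 min at 22 °C before imaging.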

Row | Sequence | switch fluorescence ratio
1 | TTATACATCT | 1.038 ± 0.0068
2 | CAGGGGCAGC | 0.927 ± 0.05
3 | ACGGGTATGG | 1.01 ± 0.017
4 | CGGGGTTGGG | 1.01 ± 0.047
5 | TTTAAGTTTG | 0.989 ± 0.029
6 | TAAATGGTTC | 0.969 ± 0.027
7 | ATGGGGATGA | 0.9776 ± 0.004
8 | AAACACTAAG | 1.08 ± 0.016
9 | GGACAATTTT | 0.977 ± 0.0015
10 | ACCAATTTTG | 1.01 ± 0.024
11 | CCGGGGGGTT | 1.09 ± 0.14
12 | GGCTATTGGA | 0.971 ± 0.012
13 | AGTGATATGA | 0.9882 ± 0.0021
14 | ATCGGGAGAG | 1.05 ± 0.026
15 | CAAAATTTGC | 0.9841 ± 0.0061
16 | AAGTCCTGCC | 1.26 ± 0.081
17 | ACGGTTTAAC | 1.105 ± 0.005
18 | GGGGTGCCCG | 0.948 ± 0.018
19 | CAAGGTATTG | 0.987 ± 0.017
20 | TAATTTTTTA | 0.976 ± 0.03
21 | TTTCTTTTAT | 0.998 ± 0.016
22 | CATGGAGATT | 0.9866 ± 0.0092
23 | CGTCTATTGT | 0.98 ± 0.046

Row | Sequence | switch fluorescence ratio
24 | TGTCGGTTTT | 0.996 ± 0.037
25 | GGTTTCGGCG | 0.966 ± 0.04
26 | CAGGTTACGC | 1.01 ± 0.027
27 | TTCAAGGGAG | 0.995 ± 0.014
28 | TTTATTCCGG | 1 ± 0.01
29 | AAGGGATGAT | 0.978 ± 0.019
30 | TATGTTATTT | 1.02 ± 0.012
31 | TGATTGGATG | 0.9855 ± 0.007
32 | TAAAGGGGCT | 1.04 ± 0.049
33 | TTAGGCCCTG | 0.992 ± 0.041
34 | CGAAGCAGGA | 2.4 ± 0.097
35 | AACAGGACTG | 1 ± 0.036
36 | ATGGATTTAC | 1.06 ± 0.028
37 | GCACCAAGGA | 1.07 ± 0.036
38 | AGGGCGTCTC | 0.981 ± 0.043
39 | CGGGACTGCT | 0.9825 ± 0.0052
40 | GGGTATCAG | 0.955 ± 0.03
41 | AGGGTACTGT | 1.05 ± 0.092
42 | ATCGGATTTT | 1.17 ± 0.22
43 | CCAAGAGGAC | 1 ± 0.027
44 | AAATAAAGCT | 1.07 ± 0.073
45 | AGGTGTAGCA | 1.02 ± 0.051
46 | TTCCGGGAGG | 0.993 ± 0.076

Row | Sequence | switch fluorescence ratio
47 | GTTACTGGAA | 1.04 ± 0.02
48 | ATATATTGGC | 1.02 ± 0.054
49 | CCCGTCAGCG | 1.02 ± 0.041
50 | AAGTTAATTC | 1.013 ± 0.0081
51 | GAGGATTAGC | 0.99 ± 0.036
52 | AGCCATGATG | 0.979 ± 0.036
53 | TACCGAAGGG | 0.989 ± 0.028
54 | ACCTTACTTA | 1.29 ± 0.029
55 | CATGGGACGT | 0.988 ± 0.071
56 | AGATTTGTCG | 0.993 ± 0.068
57 | CAGACGGGTC | 1 ± 0.041
58 | GCATTGAGTG | 0.978 ± 0.03
59 | TTTAAGCCGG | 1.01 ± 0.032
60 | GGACACTACC | 1.25 ± 0.036
61 | ACACAATAGG | 1.04 ± 0.025
62 | AATATTTTGT | 0.9833 ± 0.004
63 | AAAAACTAAT | 0.992 ± 0.088
64 | GGTACCATTG | 0.991 ± 0.03
65 | GTCGGTTGGA | 0.977 ± 0.036
66 | CCTACGTGGT | 4.49 ± 0.15
67 | AGTCAAAAAG | 0.985 ± 0.051
68 | GTGTGCAACT | 1.02 ± 0.024
69 | AGAGTCATTA | 0.995 ± 0.012

Row | Sequence | switch fluorescence ratio
70 | GACGATGTCT | 1.0078 ± 0.00071
71 | AATATTTTCG | 0.998 ± 0.038
72 | GTGTGGATTC | 0.998 ± 0.013
73 | AGTAAGGGGC | 0.98 ± 0.019
74 | GCTAAAGGCA | 0.986 ± 0.043
75 | CATTTGGTCG | 0.955 ± 0.13
76 | GATTCACGA | 0.984 ± 0.015
77 | TGGGGAAGGT | 0.994 ± 0.022
78 | TCATTAATAT | 1.16 ± 0.22
79 | AGAACTGGTT | 0.961 ± 0.034
80 | GGCTTGCGGT | 0.9974 ± 0.004
81 | TTTGGCTGGA | 1.04 ± 0.072
82 | CACGGATAAA | 1.04 ± 0.022
83 | CGAGAGGGGA | 1.03 ± 0.02
84 | ATTGGCCCAT | 0.9642 ± 0.0017
85 | AGCATGTATC | 1.07 ± 0.012
86 | GGTTTTTAAA | 1 ± 0.062
87 | TAAGGGCTGA | 1.01 ± 0.011
88 | GGGAGTTTCG | 1.06 ± 0.095
89 | GCTTATACGA | 1.55 ± 0.012
90 | TGAGGATACA | 1.016 ± 0.0029
91 | ACCTGATTAA | 1.01 ± 0.018
92 | GGTCTTTAGG | 0.99184 ± 0.00074

Row | Sequence | switch fluorescence ratio
93 | ACCCGGCTCC | 1.23 ± 0.045
94 | ATTGGACTAC | 1.07 ± 0.03
95 | TGAATTGGGA | 1.02 ± 0.07
96 | TGCTCGGATG | 0.993 ± 0.03
97 | GGGGTTTCTG | 0.986 ± 0.03
98 | GGGCTTTCTG | 0.98 ± 0.05
99 | CCTATGGTAG | 1.014 ± 0.0099
100 | AGGAGGTATT | 0.99 ± 0.026
101 | GATAGACGCA | 1.1 ± 0.089
102 | CAAGCAAATT | 1.042 ± 0.0039
103 | CGTGTCATTA | 1.01 ± 0.031
104 | GGGGCTAATG | 1.01 ± 0.023
105 | CAGGGGTTA | 1.03 ± 0.044
106 | AGTCTAGAGA | 1.015 ± 0.0095
107 | ATGGTGCTGG | 0.983 ± 0.035
108 | TAGGTAGGAG | 1 ± 0.031
109 | TATGAATCCG | 1 ± 0.063
110 | GTCTGGCTAC | 1.22 ± 0.061
111 | TTATAGGTCT | 1 ± 0.072
112 | ACTATTCGT | 0.99 ± 0.026
113 | TCGACTCACT | 1.2 ± 0.013
114 | AGCCTTAGGG | 1 ± 0.02
115 | AATAAGAAAT | 0.994 ± 0.015

Row | Sequence | switch fluorescence ratio
116 | AATTTGGCGT | 0.968 ± 0.011
117 | ATATCAGTTC | 1.012 ± 0.0091
118 | TTGGAACGGG | 1.02 ± 0.011
119 | TTCGTGTATT | 1 ± 0.025
120 | TCCGGGTGGG | 1.09 ± 0.079
121 | TTTGACAAAC | 1.1 ± 0.073
122 | GGATTAGCTT | 1.01 ± 0.051
123 | GTAGCAGCAG | 1.17 ± 0.018
124 | ATCTTCCCCC | 1.55 ± 0.016
125 | AGAGAGATGG | 0.977 ± 0.018
126 | AAGGTTATTG | 1.026 ± 0.0088
127 | CGCAGGCACG | 1.07 ± 0.052
128 | TTGATGGATG | 1.04 ± 0.09
129 | GGGTCAAGGA | 0.995 ± 0.019
130 | AAAGGGAGTA | 0.999 ± 0.041
131 | AGGAGTTGGG | 0.97 ± 0.046
132 | TTATAAAAAA | 1.07 ± 0.079
133 | TATCGGACTG | 1.01 ± 0.13
134 | ATGTCCCAAG | 0.99 ± 0.042
135 | AGAGTAGGGT | 1 ± 0.0043
136 | AGCATGGTTG | 1.01 ± 0.026
137 | GGGGGCAAGA | 0.999 ± 0.06
138 | CGTTAAATTT | 0.994 ± 0.033

Row | Sequence | switch fluorescence ratio
139 | AAGTCTCGGG | 0.995 ± 0.0026
140 | AAGTTGGAGG | 0.9797 ± 0.0024
141 | TTTGACGACA | 1.11 ± 0.1
142 | CGTGTATATC | 1.07 ± 0.028
143 | GTAAGCCCGC | 1 ± 0.053
144 | ATGGTTGTTC | 1.07 ± 0.16
145 | CGATCTTACG | 0.9935 ± 0.0069
146 | GCTTGGGCAG | 1.02 ± 0.045
147 | ATGTAGGGGT | 1.04 ± 0.093
148 | TATGGGGGAT | 1.03 ± 0.093
149 | TTTCGGGAGC | 0.977 ± 0.049
150 | TAGTATTACC | 0.9943 ± 0.0081
151 | GCGATAGCAG | 1.03 ± 0.036
152 | GTCAGCGGTG | 0.9993 ± 0.009
153 | TTCGTTAAGA | 0.992 ± 0.0094
154 | TAATAAGGTG | 1.13 ± 0.23
155 | TTTCGGGGCT | 1 ± 0.052
156 | CTGGGCGGTG | 0.9982 ± 0.0052
157 | TGAAAGATCG | 1.02 ± 0.04
